Test results from patent US20240269180A1.

Key:
[1] = molecular target: PD-1 on tumor infiltrating lymphocytes (human) (UniProt Q15116); experiment: flow cytometry of tumor digest OV8074 stained with anti-PD-1 clone EH12.2H7; percent of CD3+ cells stained PD-1+
[2] = molecular target: PD-1 on tumor infiltrating lymphocytes (human) (UniProt Q15116); experiment: flow cytometry of tumor digest M1156 stained with anti-PD-1 clone EH12.2H7; percent of CD3+ cells stained PD-1+
[3] = molecular target: PD-1 on tumor infiltrating lymphocytes (human) (UniProt Q15116); experiment: flow cytometry of tumor digest H3046 stained with anti-PD-1 clone EH12.2H7; percent of CD3+ cells stained PD-1+

UniProt Q15116, sequence (Q15116 25-288): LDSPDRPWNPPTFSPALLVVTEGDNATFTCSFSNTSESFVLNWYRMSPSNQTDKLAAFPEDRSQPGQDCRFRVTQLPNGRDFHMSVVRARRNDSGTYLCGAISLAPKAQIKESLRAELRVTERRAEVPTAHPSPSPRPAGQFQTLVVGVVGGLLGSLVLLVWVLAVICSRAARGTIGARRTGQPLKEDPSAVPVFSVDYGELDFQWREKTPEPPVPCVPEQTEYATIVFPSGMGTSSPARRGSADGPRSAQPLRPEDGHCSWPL

B1: anti-PD-1 antibody clone EH12.2H7 (antibody, from another filing, V domains shown)
VH: QVQLQQSGAELAKPGASVQMSCKASGYSFTSSWIHWVKQRPGQGLEWIGYIYPSTGFTEYNQKFKDKATLTADKSSSTAYMQLSSLTSEDSAVYYCARWRDSSGYHAMDYWGQGTSVTVSS
VL: DIVLTQSPASLTVSLGQRATISCRASQSVSTSGYSYMHWYQQKPGQPPKLLIKFGSNLESGIPARFSGSGSGTDFTLNIHPVEEEDTATYYCQHSWEIPYTFGGGTKLEIK
Pre-sort % PD-1+ (of CD3+) [1]: 70%
Pre-sort % PD-1+ (of CD3+) [2]: 93%
Pre-sort % PD-1+ (of CD3+) [3]: 13%
